# T1: purified STIL[N] (aa1-1018) (human, UniProt Q15468 1-1018)
# T1 sequence (looked up): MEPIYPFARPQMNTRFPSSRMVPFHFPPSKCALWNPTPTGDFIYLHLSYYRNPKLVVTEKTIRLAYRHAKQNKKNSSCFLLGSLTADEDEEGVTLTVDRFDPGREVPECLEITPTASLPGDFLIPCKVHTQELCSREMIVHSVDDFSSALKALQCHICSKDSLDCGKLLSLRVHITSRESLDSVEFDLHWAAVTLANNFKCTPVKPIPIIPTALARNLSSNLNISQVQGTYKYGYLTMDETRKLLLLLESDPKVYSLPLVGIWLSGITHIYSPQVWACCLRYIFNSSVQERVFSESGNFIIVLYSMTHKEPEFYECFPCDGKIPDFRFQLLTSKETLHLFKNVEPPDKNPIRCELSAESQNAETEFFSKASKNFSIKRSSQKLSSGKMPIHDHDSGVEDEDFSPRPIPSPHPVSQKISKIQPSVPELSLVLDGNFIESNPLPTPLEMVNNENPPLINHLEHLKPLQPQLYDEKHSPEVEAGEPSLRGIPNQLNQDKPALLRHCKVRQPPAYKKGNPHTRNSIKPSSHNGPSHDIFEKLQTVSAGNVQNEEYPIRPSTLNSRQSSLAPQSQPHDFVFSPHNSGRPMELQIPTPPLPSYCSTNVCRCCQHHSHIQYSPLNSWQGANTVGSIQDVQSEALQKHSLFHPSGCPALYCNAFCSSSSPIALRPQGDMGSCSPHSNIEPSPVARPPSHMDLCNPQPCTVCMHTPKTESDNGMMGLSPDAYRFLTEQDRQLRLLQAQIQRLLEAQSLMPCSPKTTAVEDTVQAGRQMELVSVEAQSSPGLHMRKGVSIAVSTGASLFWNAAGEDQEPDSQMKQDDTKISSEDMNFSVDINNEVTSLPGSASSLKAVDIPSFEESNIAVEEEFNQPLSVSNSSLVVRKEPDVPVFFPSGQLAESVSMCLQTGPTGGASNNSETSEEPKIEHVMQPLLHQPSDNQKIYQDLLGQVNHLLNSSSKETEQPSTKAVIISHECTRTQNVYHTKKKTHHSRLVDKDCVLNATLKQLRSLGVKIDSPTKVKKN
# B1: GST-RBM14[C] (domain or fragment, human, UniProt Q96PK6 151-669, looked up)
# chain: QKKGPGLAVQSGDKTKKPGAGDTAFPGTGGFSATFDYQQAFGNSTGGFDGQARQPTPPFFGRDRSPLRRSPPRASYVAPLTAQPATYRAQPSVSLGAAYRAQPSASLGVGYRTQPMTAQAASYRAQPSVSLGAPYRGQLASPSSQSAAASSLGPYGGAQPSASALSSYGGQAAAASSLNSYGAQGSSLASYGNQPSSYGAQAASSYGVRAAASSYNTQGAASSLGSYGAQAASYGAQSAASSLAYGAQAASYNAQPSASYNAQSAPYAAQQAASYSSQPAAYVAQPATAAAYASQPAAYAAQATTPMAGSYGAQPVVQTQLNSYGAQASMGLSGSYGAQSAAAATGSYGAAAAYGAQPSATLAAPYRTQSSASLAASYAAQQHPQAAASYRGQPGNAYDGAGQPSAAYLSMSQGAVANANSTPPPYERTRLSPPRASYDDPYKKAVAMSKRYGSDRRLAELSDYRRLSESQLSFRRSPTKSSLDYRRLPDAHSDYARYSGSYNDYLRAAQMHSGYQRRM
# Biological target: T1, purified STIL[N] (aa1-1018)
# Experiment: pull-down; GST-RBM14 fragments retained on Glutathione sepharose beads, incubated with ~5 μg bacterially purified STIL[N] for 2 h at 4°C in lysis buffer; SDS-PAGE, SimplyBlue Safe stain
# Details: both partners purified
binder,measurement,value
B1,binding result,binds

# Source: article PMC4291483 (The EMBO Journal, 2014)
